1 substance from patent publication US7491501B2, “Methods for identifying modulators of intracellular aggregate formation” (Auburn University, priority 2003, dated 2009) can be followed below.

For assay [1], the system named is p62 aggregates in HEK cells. The assay can be described thus: p62 aggregate formation by confocal/fluorescence microscopy in transfected HEK cells. The assay is classed as cell-based, Human. As to the method: Immunofluorescence staining—All steps were done at room temperature unless stated otherwise. The inclusion bodies were placed on poly-L-lysine coated 12 well slides (Cel-line/Erie Scientific Co., Portmouth, N.H.) and let partially dry. Inclusion bodies on the slides were fixed for 10 min in 3% paraformaldehyde (Electron Microscopy Sciences, Fort Washington, Pa.) and permeabilized with 0.1% Triton X-100 in PBS for 15 minutes. The inclusion bodies were incubated in blocking buffer (3% non fat dry milk in PBS) for 1 h, prior to incubation with primary antibodies at 4° C. overnight. After washing with PBS, the secondary antibody (Molecular Probes Inc., Eugene, Oreg.) in blocking buffer was applied for 1 h. After extensive washing in PBS, the samples were mounted using Vectashield (Vector Laboratories Inc., Burlingame, Calif.). The cells were fixed with 3% paraformaldehyde and processed similar to that of inclusion staining.
Cells were incubated with rabbit anti-myc IgG or mouse anti-HA IgG and labeled with Texas Red-conjugated anti-rabbit antibodies (red) or Oregon Green-conjugated anti-mouse antibodies (green), respectively. Merged images with overlapping immunoreactivity are shown in yellow. Note that cells expressing p62 lacking its UBA domain (p62ΔUBA) fail to form aggregates or to colocalize with ubiquitin. All experiments were replicated three independent times with similar results. Small aggregates of p62 colocalized with ubiquitin which was dependant upon the presence of a UBA domain but not the N-terminal portion of p62. Aggregation may impair the proteasome or, alternatively, impaired proteasome activity may seed aggregates. Alternatively, impairment of the proteasome may enhance the formation of p62 aggregates containing polyubiquitin.
In summary, through its UBA domain, p62 Interacts with polyubiquitinated substrates, and the UBA domain is necessary for aggregate formation.
Since TRAF6 localized to the large aggregates along with polyubiquitin (FIG. 2B), these aggregates may represent the failed attempt of the cell to rid itself of TRAF6-K63-polyubiquitinated substrates sequestered through interaction with the UBA domain. […] Altogether, these findings reveal that p62 binds proteins with K63 chains through its UBA domain and that p62 aggregates sequester TRAF6 as well as K63-polyubiquitinated substrates.
To further determine if the coassociation of tau-p62-TRAF6 and UbcH7 could be recapitulated in vitro, a cotransfection approach was undertaken. […] HEK cells were transfected with GFP-p62 followed by treatment or not with Aβ1-42 and Aβ42-1 peptides. […] This is consistent with the observation that microtubule dependent transport is important for the formation of p62 inclusions as assessed by treatment of the cells with nocodazole, a microtubule disrupting agent (9).

Assay [2] concerns the target T1, interaction of p62 with TRAF6 (Rattus norvegicus, UniProt B5DF45).
T1 construct: followed by NGF stimulation for 15 min and immunoprecipitation of TRAF6 followed by Western blotting for p62; endogenous in cells; host or cells: PC12
The assay can be described thus: TRAF6 immunoprecipitation and Western blot for p62/UbcH7 in NGF-stimulated PC12 cells. Conditions: NGF 15 min. The format is cell-based. On the procedure: Immunoprecipitation and Western blotting—Each mg of lysate/inclusion bodies was incubated with 41 ng of primary antibody at 4° C. for 3 h and then with 50 μl of 50% agarose-coupled secondary antibody for 2 more hours at 4 C. The beads were washed three times with lysis buffer, eluted by adding SDS-PAGE sample buffer, and subjected to SDS-PAGE in 7.5-12% acrylamide gels. Immunoblotting was performed on nitrocellulose membranes and analyzed by western blotting with ECL detection reagents (Amersham Biosciences).
(§1) The region spanning amino acids 225-251 is necessary for the interaction of p62 with TRAF6. The peptide containing TRAF6 binding motif in p62 along with the hydrophobic sequence containing the cell-permeable motif from Kaposi fibroblast growth factor sequence, […]-[…] (SEQ ID NO. 4) and control peptide […]-[…] (SEQ ID NO. 5) was synthesized. As a preliminary step, PC12 cells were pretreated with various concentrations of peptide for 5 h, followed by NGF stimulation for 15 min and immunoprecipitation with TRAF6 and western blotted with p62. […] The peptide was then tested for its ability to block NGF-induced tau polyubiquitination (FIG. 13A).
The peptide containing the TRAF6-binding motif in p62 along with the hydrophobic sequence containing the cell-permeable motif from Kaposi fibroblast growth factor signal sequence […]-[…] (SEQ ID NO. 4) and control peptide […]-[…] (SEQ ID NO. 5) was synthesized. As a preliminary step, PC12 cells were pretreated with different concentrations (75-300 μM) of TRAF6 peptide for 5 hours followed by NGF stimulation for 15 min and immunoprecipitation of TRAF6 followed by Western blotting for p62. […] To address whether TRAF6 peptide affects the interaction of p62 and UbcH7 with TRAF6, PC12 cells were treated with or without 150 μM of control peptide or TRAF6 peptide for 5 hours and then stimulated with NGF for 15 min. By immunoprecipitating TRAF6, TRAF6 peptide (150 μM) abrogated the interaction of p62 with TRAF6, but not UbcH7, upon NGF treatment (FIG. 8A). […] The ability of the TRAF6 peptide to impair the ubiquitination process was investigated. Lysates recovered from NGF treated cells were immunoprecipitated with TrkA receptor antibody and blotted for ubiquitin or the receptor (FIG. 15B). […] The ability of the peptide to interrupt the formation of the functional TrkA-p62-TRAF6-UbcH7 complex on NGF stimulation as well was also investigated. TrkA was immunoprecipitated and blotted for the presence of each protein in the complex (FIG. 15C).
(In general: A western blot detects proteins with antibodies after separation by electrophoresis.)

The test system of another assay is tau polyubiquitination. The assay can be described thus: NGF-induced tau polyubiquitination in PC12 cells (FIG. 13A). The format is cell-based. Conditions: control not shown. On the procedure: as §1

T1 sequence (B5DF45 whole entry): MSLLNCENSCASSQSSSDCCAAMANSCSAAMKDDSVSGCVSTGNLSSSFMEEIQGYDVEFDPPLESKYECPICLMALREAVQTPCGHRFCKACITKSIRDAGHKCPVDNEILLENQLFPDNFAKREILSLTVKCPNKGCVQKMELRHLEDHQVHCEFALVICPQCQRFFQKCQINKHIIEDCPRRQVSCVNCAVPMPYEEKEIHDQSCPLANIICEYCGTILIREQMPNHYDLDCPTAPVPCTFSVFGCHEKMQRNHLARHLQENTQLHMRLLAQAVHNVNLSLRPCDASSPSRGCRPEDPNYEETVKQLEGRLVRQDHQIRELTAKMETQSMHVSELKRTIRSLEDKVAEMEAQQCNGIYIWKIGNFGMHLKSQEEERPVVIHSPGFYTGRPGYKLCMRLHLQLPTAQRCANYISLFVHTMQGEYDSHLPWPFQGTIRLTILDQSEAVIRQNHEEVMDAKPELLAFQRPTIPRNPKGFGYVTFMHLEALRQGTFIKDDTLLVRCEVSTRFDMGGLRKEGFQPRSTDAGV
T1 sequence (D3Z8W5 1-154 partner): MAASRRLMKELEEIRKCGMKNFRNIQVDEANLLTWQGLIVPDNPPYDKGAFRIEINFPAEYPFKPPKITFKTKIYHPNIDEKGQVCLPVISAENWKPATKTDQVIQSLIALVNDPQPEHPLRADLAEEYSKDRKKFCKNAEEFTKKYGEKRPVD

Consider “AAVALLPAVLLALLAP-ESASGPSEDPSVNFLK (AAVALLPAVLLALLAPESASGPSEDPSVNFLK; artificial sequence for cell permeable peptide) [TRAF6 peptide]”, for which the “reduction in the formation of large aggregates” value in assay [1] (pretreatment with inhibitory dose of peptide prior to ALLN, GFP-p62 HEK cells) was 60%. The “effect on size of the p62 aggregates” value in assay [1] (pretreatment with peptide prior to ALLN (FIG. 2D), control peptide data not shown) is reported as “decrease in the size of the p62 aggregates”. Also, in assay [2] (150 μM peptide 5 hours), the “interaction of UbcH7 with TRAF6” value is reported as “not” and the “interaction of p62 with TRAF6” value is “completely abrogated”. In assay [2] (75-300 μM peptide 5 hours, not shown), the “optimum dose to block the interaction of p62 with TRAF6” value was 150 µM. Also, the “concentration of peptide found to block TRAF6 interaction with p62” value in assay [2] (peptide 5 h, not shown) was “One hundred and fifty”. In addition, the NGF-induced tau polyubiquitination result with tau polyubiquitination is “completely abrogated”.
